Drawing on patent US20230331868A1, this text covers EC50 for seven molecules.

To fix the notation:
B1: Humanized 3F1 VL1,VH2 (antibody, V domains shown)
VH: QVQLVQSGAEVKKPGASVKISCKASGYTFTDHAIHWVRQAPGQGLEWIGYISPGNGDIKYNEKFKDRVTLTADKSSSTASMHLRSLRSDDTAVYFCKRSLLALDYWGQGTLVTVSS
VL: DIQMTQSPSSLSASVGDRVTITCKASQDVGTNIAWYQQKPGKAPKVLIYSASTRHTGVPSRFSGSGSGTDFTLTISSLQPEDFATYFCQQYSSFPLTFGQGTKVEIK
B2: Humanized 3F1 VL1,VH3 (antibody, V domains shown)
VH: B1 VH with Q1E, I20V, I48M, N55S, L70M, S80Y, H82Q
VL: B1 VL
B3: Humanized 3F1 VL1,VH4 (antibody, V domains shown)
VH: B1 VH with Q1E, N55S
VL: B1 VL
B4: Humanized 2G12-2B2 VL0,VH3 (antibody, V domains shown)
VH: EVQLVQSGAEVKKPGASVKVSCKASGYTFTDHAIHWVRQAPGQGLEWMGYFSPGNDDIKYNEKFRGRVTMTADKSSSTAYMELRSLRSDDTAVYFCKRSLSTPYWGQGTLVTVSS
VL: DIVMTQSPDSLAVSLGERATINCKSSQSLLNRGNHKNYLTWYQQKPGQPPKLLIYWASTRESGVPDRFSGSGSGTDFTLTISSLQAEDVAVYYCQNDYTYPYTFGQGTKVEIK
B5: Humanized 2G12-2B2 VL2,VH1 (antibody, V domains shown)
VH: B4 VH with E1Q
VL: B4 VL with A19V, I21M, N22S
B6: Humanized 2G12-2B2 VL0,VH2 (antibody, V domains shown)
VH: B4 VH with E1Q, V20I, M48I, M70L
VL: B4 VL
B7: Humanized 2G12-2B2 VL0,VH1 (antibody, V domains shown)
VH: B4 VH with E1Q
VL: B4 VL

Residue numbers refer to the chain shown, from its start.

One experiment concerns the target bovine submaxillary mucin (bovine). The experiment is described as follows: ELISA on BSM-coated wells; periodate-sensitive signal.
Turning to B1, the EC50 was determined as 1.4 nM.

As to B2, the EC50 worked out at 12.2 nM.

B3 registered an EC50 of 6.5 nM.

B4 yielded an EC50 of 4.2 nM.

B5 had an EC50 of 4.4 nM.

With B6, the EC50 stood at 1.8 nM.

B7 had an EC50 of 4.5 nM.

A further experiment shares this target. The experiment is described as follows: ELISA on BSM-coated wells; antibody from one liter production. A general note: ELISA stands for enzyme-linked immunosorbent assay.
In the case of B1, the EC50 stood at 0.57 nM.

Consider B4, for which the EC50 is 0.8 nM.

Usually EC50 stands for the concentration needed to bring the measured effect to its halfway point. Low readings indicate an effect from little substance, high ones a need for much substance.
